Source: US20260078146A1, “EPHA2 TARGETING AGENTS AND USES THEREOF” (The Regents of the University of California, priority 2022, published 2026)
Blank lines part the entries; values can stand above or below the molecule they belong to. *1 amine or outer side, *2 acyl side, *3 side chain or, on linkers, in order; H or OH if unused. Where no end group is shown, it is not given here. [ ]: non-standard residue; d: D form. The star is where a group is joined. 2‑CF3‑Bip = 4-(2-trifluoromethylphenyl)-L-phenylalanine, O=C([C@H](Cc1ccc(-c2ccccc2C(F)(F)F)cc1)N[*:1])[*:2]; Phe(2-NH2) = O=C([C@H](Cc1ccccc1N[*:3])N[*:1])[*:2]; Acetyl(2-(piperazin-1-yl)) = O=C(CN1CCNCC1)*; Chg = N[C@H](C(=O)O)C1CCCCC1; GABA = NCCCC(=O)O; βAla = NCCC(=O)O

Tests used:
[1] = 8 mg/Kg daily, IV, Balb/C mice, 3 mice
MIA PaCa-2 tumors = assay: Tumor xenograft with MIA PaCa-2 cells; format: in vivo, nu/nu mice
[2] = target: T1, EphA2 ligand binding domain (EphA2-LBD), recombinant (UniProt P29317 27-200, limits assumed); assay: DELFIA displacement; competitor: immobilised 123B9-Biotin
T1 construct: also called EphA2 protein; isolated EphA2-LBD

[3] = target: T1, EphA2 ligand binding domain …; assay: ITC
[4] = dose equivalent to […] of PTX (targefrin-PTX 10 mg/Kg, targefrin-dimer-PTX 17 mg/kg), IV days 1, 4, 8, 11, 15, 18, compared to untreated and PTX groups

T1 sequence (P29317 27-200 limits assumed): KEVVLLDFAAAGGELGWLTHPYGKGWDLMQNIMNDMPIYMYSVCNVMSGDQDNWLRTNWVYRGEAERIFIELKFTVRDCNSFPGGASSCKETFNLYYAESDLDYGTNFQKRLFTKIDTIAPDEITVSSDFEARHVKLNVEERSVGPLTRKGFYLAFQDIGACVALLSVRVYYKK

Molecule: CC(=O)O[C@H]1C(=O)[C@@]2(C)[C@H]([C@H](OC(=O)c3ccccc3)[C@]3(O)C[C@H](OC(=O)[C@H](O)[C@@H](NC(=O)c4ccccc4)c4ccccc4)C(C)=C1C3(C)C)[C@]1(OC(C)=O)CO[C@@H]1C[C@@H]2O [PTX, paclitaxel, reference compound]
mice found dead after the 2nd dose [1]: 2 of 3

Molecule: CC(=O)O[C@H]1C(=O)[C@@]2(C)[C@H]([C@H](OC(=O)c3ccccc3)[C@]3(O)C[C@H](OC(=O)[C@H](OC(=O)CCCCCn4cc(CCCC(=O)NCCCC[C@H](NC(=O)CNC(=O)[C@H](CCCCNC(=O)CNC(=O)[C@@H]5CCCN5C(=O)[C@@H](CCCNC(=N)N)NC(=O)[C@@H](Cc5ccccc5)NC(=O)[C@H]5CCCN5C(=O)[C@H](NC(=O)[C@@H](C)NC(=O)[C@@H](CC(=O)O)NC(=O)[C@@H]5CCCN5C(=O)[C@H](Cc5ccc(-c6ccccc6C(F)(F)F)cc5)NC(=O)[C@H](C)NC(=O)[C@H](CC(C)C)NC(=O)[C@H](Cc5ccc(N)cc5)NC(=O)CN5CCNCC5)C5CCCCC5)NC(=O)CNC(=O)[C@@H]5CCCN5C(=O)[C@H](CCCNC(=N)N)NC(=O)[C@H](Cc5ccccc5)NC(=O)[C@@H]5CCCN5C(=O)[C@@H](NC(=O)[C@H](C)NC(=O)[C@H](CC(=O)O)NC(=O)[C@@H]5CCCN5C(=O)[C@H](Cc5ccc(-c6ccccc6C(F)(F)F)cc5)NC(=O)[C@@H](C)NC(=O)[C@@H](CC(C)C)NC(=O)[C@@H](Cc5ccc(N)cc5)NC(=O)CN5CCNCC5)C5CCCCC5)C(N)=O)nn4)[C@@H](NC(=O)c4ccccc4)c4ccccc4)C(C)=C1C3(C)C)[C@]1(OC(C)=O)CO[C@@H]1C[C@@H]2O [targefrin-dimer-PTX, [PiperazAcAcid-(2-NH2-Phe)-L-A-(2-CF3-Bip)-PD-A-Chg-PFRPG]2-KGK-(Linker)-PTX]
antitumor effect (tumor volume) (MIA PaCa-2 tumors; [4]): significant antitumor effect
antitumor effect (tumor volume) (MIA PaCa-2 tumors; lower dose 10 mg/kg, equivalent to 1.5 mg/kg of PTX, compared to PTX […] group): more effective than the PTX treated group

Molecule: PiperazAcAcid-(2-NH2-Phe)-L-A-(2-CF3-Bip)-PD-A-Chg-PFRPG-K-(Linker)-PTX (XLAXPDAXPFRPGK; not fully specified; non-natural residues) [targefrin-PTX]
antitumor effect (tumor volume) (MIA PaCa-2 tumors; [4]): significant antitumor effect

B2: targefrin (agent 27) (peptide)
peptide: XLAXPDAXPFRP
modifications: N-terminal PiperazAcAcid cap; X1 = 2NH2-Phe; X4 = 2-CF3-Bip; X8 = Chg; C-terminal CONH2
notes: also called targefrin monomer; monomeric version of targefrin
-TΔS [3]: 9.7 kcal/mol
ΔH [3]: -20.2 kcal/mol

Now from value to molecule:

IC50 [2]: 7.6 nM
B1: dimeric targefrin agent 29 (n = 2, β-Ala spacer) (peptide)
peptide: {Acetyl(2-(piperazin-1-yl))}-[Phe(2-NH2)]LA[2‑CF3‑Bip]PDA[Chg]PFRP[βAla]
chain: Lys-NH2
modifications: also: branching Lys carries a second identical arm (dimer)

IC50 [2]: 6.5 nM
B3: targefrin-dimer (agent 28, n = 1, Gly-Lys linker) (peptide)
peptide: XLAXPDAXPFRPG
chain: K
modifications: branching Lys that carries one arm on each of its two amines; C-terminal CONH2; N-terminal PiperazAcAcid cap; X1 = 2-NH2-Phe; X4 = 2-CF3-Bip; X8 = Chg; the C-terminal Gly is joined to an amine of the branching Lys

IC50 [2]: 5.3 nM
B4: dimeric targefrin agent 30 (n = 3, GABA spacer) (peptide)
peptide: {Acetyl(2-(piperazin-1-yl))}-[Phe(2-NH2)]LA[2‑CF3‑Bip]PDA[Chg]PFRP[GABA]
chain: Lys-NH2
modifications: also: branching Lys carries a second identical arm (dimer)
